Results taken from the supplement of paper PMC10567573.

B1: HDAC6 (parent)
chain: KMKTRELHRESSNFDSIYICPSTF

Variants of: B1
Assay: protein stability index of a GFP-peptide fusion (GPS, HEK-293T) (PSI 1-6); higher = more stable
Conditions: c terminus: a fixed tail appended
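Further: lentivirally expressed fusions sorted by FACS into six bins by GFP to DsRed ratio, PSI derived from sequencing read proportions per bin multiplied by bin number.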

Protein stability index, by site and new letter:
S16: Y 1.85; I 1.54; D 2.68; F 2.08; M 1.66; H 1.99; T 2.62; A 1.88; E 3.02; V 2.12; P 2.47; C 1.76; K 2.29; L 1.74; N 1.31; G 2.14; Q 1.91; R 2.83
C20: F 2.21; H 2.94; S 2.48; T 2.76; L 2.2; V 2.24; P 2.69; R 2.61; M 2.17; A 2.86; Q 3.13; E 3.34; I 1.69; K 2.15; G 2.22; Y 2.07; N 3.23; D 2.54
R9: Y 2.09; W 1.78; M 1.84; E 2.77; A 2.27; P 2.45; Q 2.58; T 2.39; N 2.4; K 2.8; H 2.15; V 2.85; I 1.86; S 2.27; C 2.39; D 2.45; G 2.38; F 1.39; L 2.07
T23: A 2.16; C 2.5
E10: G 3.45; T 2.83; N 2.98; H 1.87; F 2.26; I 1.85; K 2.71; W 1.22; S 1.79; L 2.15; D 2.03; C 2.18; M 2.62; P 1.82; R 2.1; Y 1.56; Q 1.78; V 2.04; A 2.51
S11: Y 1.98; W 2.85; C 1.75; N 2.3; F 1.71; P 2.13; H 3.04; D 2.54; I 2.71; M 1.61; K 2.72; G 1.96; V 2.3; A 1.87; E 2.2; T 2.41; Q 2.36; R 1.71; L 1.66
F14: P 2.99; Y 1.78; W 2.01; Q 3.71; V 2.68; K 3.03; D 2.79; T 3.11; N 3.05; I 2.58; R 1.7; C 2.24; G 4.12; S 2.8; M 2.44; H 2.88; L 2.41; E 3.34; A 3.84
L7: F 2.53; R 3.2; Q 2.72; T 2.77; I 2; P 2.72; V 1.92; C 1.75; A 3.33; M 1.46; N 2.65; W 2.62; K 3.11; G 3.12; H 3.02; E 3.2; S 3.05; Y 2.41; D 2.73
I17: Y 2.11; V 2.27; M 2.57; K 3.31; R 2.97; H 3.15; C 2.49; T 3.25; L 2.13; S 2.45; E 3.19; W 2.06; F 1.85; A 2.96; N 2.9; G 2.51; D 3.75; P 2.41; Q 2.48
N13: C 1.79; D 2.61; F 1.45; K 2.23; P 2.49; T 2.35; Q 2.44; V 1.98; I 1.73; W 1.93; A 1.93; M 2.58; H 1.58; L 1.74; Y 1.64; E 2.23; S 1.97; G 2.68; R 3.21
R5: V 2.27; G 2.39; E 2.73; Q 2.08; L 3.32; W 1.72; S 2.21; I 1.83; M 2.4; N 2.46; F 1.94; D 2.62; P 2.36; T 2.15; Y 1.8; H 2.88; K 2.38
S22: W 3.05; R 1.83; G 2.06; P 2.65; T 1.74; L 1.42; Y 1.98; M 1.42; C 1.85; I 1.65; H 2.09; A 2.14; F 2.19; Q 1.78; K 3.33; E 2.66; D 2.76; V 1.6; N 2.13
D15: A 2; L 4.27; P 1.68; E 1.93; K 1.79; G 1.69; Y 1.63; R 1.89; F 2.02; Q 1.96; W 2.21; M 1.92; N 2.01; V 2.11; C 2.82; S 2.04; T 1.9; H 1.44
I19: M 1.44; E 3.81; Q 3.2; A 2.74; D 3.44; F 2.81; S 2.35; P 3.35; G 2.91; H 3.1; T 2.25; Y 2.16; L 3.14; N 3.22; C 2.34; W 3.01; R 2.47; K 2.94; V 2.8
E6: T 3.12; V 2.23; H 1.96; M 1.6; L 1.44; C 1.31; G 1.57; S 2.2; P 1.66; W 1.76; K 2; R 1.92; A 1.99; I 1.83; N 2.32; Y 1.72; Q 2.66; F 1.86; D 2.85
P21: S 1.74; A 1.77; Q 1.94; K 2.32; N 2.37; D 2.91; E 1.91; C 2.71; H 1.34; R 1.78; F 2.44; T 1.54; G 1.95; V 2.33
H8: D 2.22; K 2.5; W 1.83; R 2.22; F 1.69; P 2.56; S 2.92; Q 2.92; V 2.6; I 1.38; E 2.32; G 2.15; C 1.6; Y 1.56; M 1.97; L 1.97; N 2.07; T 2.21; A 1.98
S12: K 2.74; V 2.38; L 1.83; A 2.34; N 2.04; F 1.74; D 2.29; T 2.17; E 3.25; P 2.12; R 1.95; Y 1.53; Q 2.54; M 1.55; C 1.89; G 3.05; I 1.94; H 2.46; W 2.17
Y18: I 2.31; V 2.86; F 2.05; K 2.44; A 4.07; Q 2.96; S 2.72; E 3.45; M 2.4; R 2.52; P 3.33; G 3.09; N 3.56; L 2.82; T 3.32; C 2.29; H 2.41; D 3.8; W 2.38
